From PMC12412097, “Structure and Nitrite Reductase Activity of the Di-iron Protein ScdA in Staphylococcus aureus” (Journal of the American Chemical Society, 2025)

Tests used:
[1] = biological target: the molecule itself; experiment: SEC; Superdex 75 Increase 10/300 GL, 20 mM Tris, 150 mM NaCl, pH 7.6; no reducing agent (WT also with MV radicals); oligomer peak at 9.2 mL, dimer peak at 10.9 mL
[2] = biological target: the molecule itself; experiment: crystal structure
[3] = biological target: the molecule itself; experiment: SEC; as a1, protein treated with the reducing agent DTT

B1: cysteine-free (CF) ScdA variant (C30A/C31A/C191A), N-terminal His6 tag (enzyme)
chain: not shown
notes: also called CF variant; not shown: His6, N-terminal, kept
- stoichiometry N [1]: 2

B2: ScdA S77E variant (wild-type cysteines) (enzyme)
chain: not shown
notes: also called S77E mutant; not shown: His6, N-terminal, kept
- binding result [1]: binds

B3: tag-free variant of CF ScdA (tagless ScdA) (enzyme)
chain: not shown
notes: also called CF ScdA (crystal); source: E. coli, purified (Q Sepharose, SEC)
- stoichiometry N [2]: 2

B4: CF ScdA S77C (enzyme)
chain: not shown
notes: not shown: His6, N-terminal, kept
- stoichiometry N [1]: 2

B5: wild-type (WT) ScdA, S. aureus, N-terminal His6 tag (enzyme)
chain: not shown
notes: also called as-isolated WT; reduced WT; not shown: His6, N-terminal, kept
- stoichiometry N [3]: 2
